Data from US20140162285A1, “Methods of Modulating Vesicular Trafficking” (The General Hospital Corporation, priority 2009, published 2014).
“Also recorded” adds a separate entry of the source. Ends that are not written are not given here.

T1: 6His-a2N(wt) (Mus musculus, UniProt P15920)
T1 construct: amino acid residues 1-402 of mouse V-ATPase a2-subunit (a2N1-402); made in house; host or cells: cell-free in vitro translation
T1 sequence (P15920 1-402): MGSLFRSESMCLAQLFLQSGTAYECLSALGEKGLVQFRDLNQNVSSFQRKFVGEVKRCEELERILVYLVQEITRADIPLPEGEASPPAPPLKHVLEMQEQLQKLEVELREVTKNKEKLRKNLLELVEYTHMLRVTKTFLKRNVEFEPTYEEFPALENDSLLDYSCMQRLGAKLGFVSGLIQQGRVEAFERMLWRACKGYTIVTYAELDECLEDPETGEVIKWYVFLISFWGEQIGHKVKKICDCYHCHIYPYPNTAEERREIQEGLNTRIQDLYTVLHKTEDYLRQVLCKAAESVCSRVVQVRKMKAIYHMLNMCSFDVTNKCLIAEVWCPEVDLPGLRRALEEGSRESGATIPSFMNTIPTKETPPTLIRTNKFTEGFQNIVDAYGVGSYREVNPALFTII

T2: GST-ARNO(wt) (Homo sapiens, UniProt Q99418)
T2 construct: i) 1-400aa, full length ARNO(wt); made in house; host or cells: E. coli BL21(DE3)
T2 sequence (Q99418 1-400): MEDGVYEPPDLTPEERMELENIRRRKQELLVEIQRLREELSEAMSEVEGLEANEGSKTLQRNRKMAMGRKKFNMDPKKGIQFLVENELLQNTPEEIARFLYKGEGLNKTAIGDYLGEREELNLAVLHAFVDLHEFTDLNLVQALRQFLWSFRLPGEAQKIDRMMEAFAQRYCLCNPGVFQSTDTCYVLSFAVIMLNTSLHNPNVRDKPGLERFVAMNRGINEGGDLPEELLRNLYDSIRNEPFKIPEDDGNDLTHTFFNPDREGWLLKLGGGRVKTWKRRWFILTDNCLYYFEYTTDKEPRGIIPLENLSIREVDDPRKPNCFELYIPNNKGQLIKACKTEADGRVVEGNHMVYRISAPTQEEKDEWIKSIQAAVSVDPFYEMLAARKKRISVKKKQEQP


Legend:
6His-a2N(wt) = biological target: T1, 6His-a2N(wt); test: ARNO-derived peptide pull-down with in vitro translated 6His-a2N(wt); type: binding; settings: 7 nmol biotin-tagged peptide on streptavidin-agarose beads
Protocol: FIGS. 4B-C are images of Western blots showing (4B) the results of peptide pull-down assays for interaction of a2N with Sec7-PH-linker of ARNO and (4C) phosphorylation-dependent interaction of a2N with ARNO-derived peptide corresponding to the PB-domain of ARNO. Corresponding ARNO-derived peptides were immobilized on streptavidin-beads and incubated with in vitro translated recombinant a2N. Interacting complexes were eluted and analyzed by Western blotting using anti-a2N antibodies.
ARNO-derived peptides, equal amounts (7 nmol) of biotin-tagged synthetic peptides were also immobilized on streptavidin-agarose beads followed by incubation with 10 μl of in vitro translated 6His-a2N(wt) recombinant protein. Pull-down experiments and SDS-PAGE analysis were performed as described above and interacting 6His-a2N/ARNO-derived-peptide complexes were analyzed by Western blotting using polyclonal anti-a2N antibody. All experiments were repeated at least three times with similar results.

GST-ARNO(wt) = biological target: T2, GST-ARNO(wt); test: recombinant protein pull-down of in vitro translated a2N-N / a2N-C with GST-ARNO(wt); type: binding; settings: 35S-labeled in vitro translated protein, autoradiography
Text: FIG. 2C is an image of a Western blot showing that both the amino terminus (a2N-N) and carboxyl terminus (a2N-C) of the cytosolic tail of the a2-subunit interact with ARNO(wt). Left panel, a pull-down (PD) of in vitro translated metabolically labeled a2N-N (a2N1-133) with recombinant GST-only and GST-ARNO(wt) used as a baits. […] Right panel, a pull-down (PD) of in vitro translated metabolically labeled a2N-C (a2N134-393) with recombinant GST-only and GST-ARNO(wt) used as a baits.
The purified recombinant GST-ARNO(wt) and GST-tagged ARNO domain constructs ([…]) were incubated with 10 μl of in vitro translated 6His-a2N recombinant protein at 4° C. for 2 hours in 500 μl of binding buffer (10 mM HEPES, 1 mM EDTA, 1 mM DTT, 100 mM NaCl, 10% glycerol, 0.1% NP-40) with gentle rotation. Then the interacting recombinant proteins were immobilized on glutathione beads by incubation with 50 μl of 50% glutathione Sepharose 4B slurry for 2 hours at 4° C. The beads were collected by centrifugation and washed 5 times with 500 μl ice-cold binding buffer. Interacting proteins were eluted by boiling in SDS-PAGE sample buffer for 10 min at 95° C., resolved by SDS-PAGE and analyzed by Western blotting using polyclonal anti-a2N antibodies. […]

Molecule | interaction of ARNO-derived peptide with a2N (6His-a2N(wt)) | interaction with GST-ARNO(wt) in pull-down (GST-ARNO(wt))
ARNO375-400: biotinylated non-phosphorylated peptide covering the PB-domain of ARNO plus four PH/PB-linker amino acids, SEQ ID NO:32 (VSVDPFYEMLAARKKRISVKKKQEQP; also: biotinylated, site not given here) | direct interaction | –
a2N-C: C-terminal part of a2N, amino acid residues 134-393 of the mouse V-ATPase a2-subunit, in vitro translated (protein) MSGSHHHHHHSSGIEGRGRLIKMTVTKTFLKRNVEFEPTYEEFPALENDSLLDYSCMQRLGAKLGFVSGLIQQGRVEAFERMLWRACKGYTIVTYAELDECLEDPETGEVIKWYVFLISFWGEQIGHKVKKICDCYHCHIYPYPNTAEERREIQEGLNTRIQDLYTVLHKTEDYLRQVLCKAAESVCSRVVQVRKMKAIYHMLNMCSFDVTNKCLIAEVWCPEVDLPGLRRALEEGSRESGATIPSFMNTIPTKETPPTLIRTNKFTEGFQNIVDAYGVGSYRE | – | could interact; also recorded: direct interaction
a2N-N: N-terminal part of a2N, amino acid residues 1-133 of the mouse V-ATPase a2-subunit, in vitro translated (protein) MSGSHHHHHHSSGIEGRGRLIKMTMGSLFRSESMCLAQLFLQSGTAYECLSALGEKGLVQFRDLNQNVSSFQRKFVGEVKRCEELERILVYLVQEITRADIPLPEGEASPPAPPLKHVLEMQEQLQKLEVELREVTKNKEKLRKNLLELVEYTHMLR | – | could interact; also recorded: direct interaction
